Experimental data reported in paper PMC2064659 (The Journal of Cell Biology, 2007).

Target: T1, GST-SH3^SGEF (amino acids 789–850) (UniProt Q96DR7 789-850)
T1 sequence (looked up): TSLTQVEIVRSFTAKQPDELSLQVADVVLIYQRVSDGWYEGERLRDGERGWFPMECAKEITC
Assay: pull-down

binding result: binds
B1: ICAM1–intracellular tail peptide, biotinylated (peptide)
peptide: GRQRKIKKYRLQQAQKGTPMKPNTQATPP
HELM: PEPTIDE1{[O=C1N[C@H]2[C@H](CS[C@H]2CCCCC(=O)[*:2])N1].G.R.Q.R.K.I.K.K.Y.R.L.Q.Q.A.Q.K.G.T.P.M.K.P.N.T.Q.A.T.P.P}$$$$V2.0
SMILES: CC[C@H](C)[C@H](NC(=O)[C@H](CCCCN)NC(=O)[C@H](CCCNC(=N)N)NC(=O)[C@H](CCC(N)=O)NC(=O)[C@H](CCCNC(=N)N)NC(=O)CNC(=O)CCCC[C@@H]1SC[C@@H]2NC(=O)N[C@@H]21)C(=O)N[C@@H](CCCCN)C(=O)N[C@@H](CCCCN)C(=O)N[C@@H](Cc1ccc(O)cc1)C(=O)N[C@@H](CCCNC(=N)N)C(=O)N[C@@H](CC(C)C)C(=O)N[C@@H](CCC(N)=O)C(=O)N[C@@H](CCC(N)=O)C(=O)N[C@@H](C)C(=O)N[C@@H](CCC(N)=O)C(=O)N[C@@H](CCCCN)C(=O)NCC(=O)N[C@H](C(=O)N1CCC[C@H]1C(=O)N[C@@H](CCSC)C(=O)N[C@@H](CCCCN)C(=O)N1CCC[C@H]1C(=O)N[C@@H](CC(N)=O)C(=O)N[C@H](C(=O)N[C@@H](CCC(N)=O)C(=O)N[C@@H](C)C(=O)N[C@H](C(=O)N1CCC[C@H]1C(=O)N1CCC[C@H]1C(=O)O)[C@@H](C)O)[C@@H](C)O)[C@@H](C)O
